Source: patent publication US20200407452A1 (published 2020)

B1: 71G12 chimeric llama-human IgG1 mAb (antibody, V domains shown)
VH: QVQLQESGGDLVQPGGSLRVSCVVSGFTFSRYYMSWVRQAPGKGLEWVSSIDSYGYSTYYTDSVKGRFTISRDNAKNTLYLQMNSLKPEDTALYYCARAKTTWSYDYWGQGTQVTVSS
VL: EIVLTQSPSSVTASVGGKVTINCKSSQSVFIASNQKTYLNWYQQRPGQSPRLVISYASTRESGIPDRFSGSGSTTDFTLTISSVQPEDAAVYYCQQAYSHPTFGQGTKVELK
notes: human IgG1 CH1-CH2-CH3 and human CL kappa
B2: 74C8 chimeric llama-human IgG1 mAb (antibody, V domains shown)
VH: EVQLVESGGGLVQPGGSLRLSCAASGFTFRNYHMSWVRQVPGKGFEWISDINSAGGSTYYADSVKGRFTISRDNAKNTLYLEMNSLKPEDTALYYCARVNVWGVNYWGKGTLVSVSS
VL: QTVVTQEPSLSVSPGGTVTLTCGLSSGSVTTSNYPGWFQQTPGQAPRTLIYNTNSRHSGVPSRFSGSISGNKAALTITGAQPEDEADYYCSLYPGSYTNVFGGGTHLTVL
notes: human IgG1 CH1-CH2-CH3 and human CL lambda
B3: 76G7 chimeric llama-human IgG1 mAb (antibody, V domains shown)
VH: QVQLVESGGNLVQPGGSLRLSCAASGFTFSNYYMSWVRQAPGKGLEWVSDIYSDGSTTWYSDSVKGRFTISRDNAKNTLSLQMNSLKSEDTAVYYCARVKIYPGGYDAWGQGTQVTVSS
VL: QAGLTQPPSVSGSPGKTVTISCAGNSSDVGYGNYVSWYQQFPGMAPKLLIYLVNKRASGITDRFSGSKSGNTASLTISGLQSEDEADYYCASYTGSNNIVFGGGTHLTVL
notes: as for B2
B4: 72F8 chimeric llama-human IgG1 mAb (antibody, V domains shown)
VH: ELQLVESGGGLVQPGGSLRLSCAASGFTFSNYVMSWVRQAPGKGLEWVSDTNSGGSTSYADSVKGRFTISRDNAKNTLYLQMNSLKPEDTALYYCARSFFYGMNYWGKGTQVTVSS
VL: QSALTQPPSLSASPGSSVRLTCTLSSGNNIGSYDISWYQQKAGSPPRYLLNYYTDSRKHQDSGVPSRFSGSKDASANAGLLLISGLQPEDEADYYCSAYKSGSYRWVFGGGTHVTVL
notes: as for B2
B5: recombinant mouse HGF (R&D Systems) (ligand, UniProt Q08048 33-728, looked up)
chain: QKKRRNTLHEFKKSAKTTLTKEDPLLKIKTKKVNSADECANRCIRNRGFTFTCKAFVFDKSRKRCYWYPFNSMSSGVKKGFGHEFDLYENKDYIRNCIIGKGGSYKGTVSITKSGIKCQPWNSMIPHEHSFLPSSYRGKDLQENYCRNPRGEEGGPWCFTSNPEVRYEVCDIPQCSEVECMTCNGESYRGPMDHTESGKTCQRWDQQTPHRHKFLPERYPDKGFDDNYCRNPDGKPRPWCYTLDPDTPWEYCAIKTCAHSAVNETDVPMETTECIQGQGEGYRGTSNTIWNGIPCQRWDSQYPHKHDITPENFKCKDLRENYCRNPDGAESPWCFTTDPNIRVGYCSQIPKCDVSSGQDCYRGNGKNYMGNLSKTRSGLTCSMWDKNMEDLHRHIFWEPDASKLNKNYCRNPDDDAHGPWCYTGNPLIPWDYCPISRCEGDTTPTIVNLDHPVISCAKTKQLRVVNGIPTQTTVGWMVSLKYRNKHICGGSLIKESWVLTARQCFPARNKDLKDYEAWLGIHDVHERGEEKRKQILNISQLVYGPEGSDLVLLKLARPAILDNFVSTIDLPSYGCTIPEKTTCSIYGWGYTGLINADGLLRVAHLYIMGNEKCSQHHQGKVTLNESELCAGAEKIGSGPCEGDYGGPLICEQHKMRMVLGVIVPGRGCAIPNRPGIFVRVAYYAKWIHKVILTYKL
modifications: biotinylated at the N-terminus using NHS-LC-biotin (in the competition ELISA only)
B6: 71G3 llama-mouse chimeric mAb (mouse IgG1/lambda) (antibody, V domains shown)
VH: QVQLVESGGGLVQPGGSLRVSCAASGFTFSTYYMSWVRQAPGKGLEWVSDIRTDGGTYYADSVKGRFTMSRDNAKNTLYLQMNSLKPEDTALYYCARTRIFPSGYDYWGQGTQVTVSS
VL: QAVVTQEPSLSVSPGGTVTLTCGLSSGSVTTSNYPGWFQQTPGQAPRTLIYNTNSRHSGVPSRFSGSISGNKAALTIMGAQPEDEADYYCSLYPGSTTVFGGGTHLTVLG
B7: 71G2 llama-mouse chimeric mAb (mouse IgG1/lambda) (antibody, V domains shown)
VH: EVQLQESGGGLVQPGGSLRLSCAASGFTFSIYDMSWVRQAPGKGLEWVSTINSDGSSTSYVDSVKGRFTISRDNAKNTLYLQMNSLKPEDTAVYYCAKVYGSTWDVGPMGYGMDYWGKGTLVTVSS
VL: SSALTQPSALSVSLGQTARITCQGGSLGSSYAHWYQQKPGQAPVLVIYGDDSRPSGIPERFSGSSSGGTATLTISGAQAEDEDDYYCQSTDSSGNTVFGGGTRLTVLG

Target: T1, native human MET on living cells (human, UniProt P08581 25-1390)
T1 sequence (P08581 25-1390): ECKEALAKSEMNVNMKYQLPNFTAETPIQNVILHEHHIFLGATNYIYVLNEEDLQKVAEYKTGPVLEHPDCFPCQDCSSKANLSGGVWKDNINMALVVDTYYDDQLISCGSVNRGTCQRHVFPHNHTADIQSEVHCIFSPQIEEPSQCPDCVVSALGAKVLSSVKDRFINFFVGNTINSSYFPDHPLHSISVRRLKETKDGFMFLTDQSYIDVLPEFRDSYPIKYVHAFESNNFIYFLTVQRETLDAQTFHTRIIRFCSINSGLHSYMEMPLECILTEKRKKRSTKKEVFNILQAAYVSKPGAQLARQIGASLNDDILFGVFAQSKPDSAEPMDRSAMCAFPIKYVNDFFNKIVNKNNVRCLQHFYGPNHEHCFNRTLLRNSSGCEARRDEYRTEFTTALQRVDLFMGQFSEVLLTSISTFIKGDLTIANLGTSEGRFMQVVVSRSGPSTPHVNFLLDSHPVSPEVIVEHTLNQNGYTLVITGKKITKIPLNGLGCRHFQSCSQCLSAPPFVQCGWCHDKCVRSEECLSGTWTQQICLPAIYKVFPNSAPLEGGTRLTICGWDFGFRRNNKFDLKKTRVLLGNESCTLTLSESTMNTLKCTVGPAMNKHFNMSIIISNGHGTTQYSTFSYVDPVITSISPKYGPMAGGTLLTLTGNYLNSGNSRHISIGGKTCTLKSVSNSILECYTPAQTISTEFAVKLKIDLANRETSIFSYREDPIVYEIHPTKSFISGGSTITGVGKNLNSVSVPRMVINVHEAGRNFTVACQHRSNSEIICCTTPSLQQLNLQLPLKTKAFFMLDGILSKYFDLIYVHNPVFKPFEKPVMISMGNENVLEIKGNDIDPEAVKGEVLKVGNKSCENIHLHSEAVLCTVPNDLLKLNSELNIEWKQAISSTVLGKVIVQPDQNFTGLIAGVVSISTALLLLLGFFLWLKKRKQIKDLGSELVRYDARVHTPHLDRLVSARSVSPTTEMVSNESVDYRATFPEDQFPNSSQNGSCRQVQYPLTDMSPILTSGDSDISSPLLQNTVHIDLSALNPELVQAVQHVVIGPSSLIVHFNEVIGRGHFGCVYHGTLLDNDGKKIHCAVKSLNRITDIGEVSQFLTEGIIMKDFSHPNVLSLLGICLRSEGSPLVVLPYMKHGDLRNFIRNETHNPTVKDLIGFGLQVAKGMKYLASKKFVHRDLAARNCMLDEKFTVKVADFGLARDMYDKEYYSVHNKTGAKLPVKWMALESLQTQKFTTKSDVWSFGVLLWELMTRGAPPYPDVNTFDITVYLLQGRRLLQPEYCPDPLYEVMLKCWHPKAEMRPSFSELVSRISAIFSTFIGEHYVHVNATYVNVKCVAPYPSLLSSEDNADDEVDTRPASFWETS
Assay: cell-based or functional assay

First: B1
Second: B2
The “phospho-MET ELISA EMAX, A549 cells” value of the first is lower: 70.6 % HGF activity for the first, 87.6 % HGF activity for the second.

First: B3
Second: B4
The “phospho-MET ELISA EMAX, A549 cells” value of the first is lower: 62.3 % HGF activity for the first, 69.7 % HGF activity for the second.

Target: T2, native mouse MET on living cells (mouse, UniProt P16056 25-1379)
Assay: cell-based or functional assay

Compared with B1, B5 is higher in “phospho-MET ELISA EMAX, MLP29 cells” value: 75.4 % HGF activity for the first, 100 % HGF activity for the second.

Going from B2 to B3, the “phospho-MET ELISA EMAX, MLP29 cells” value falls from 102 % HGF activity to 71.5 % HGF activity.

B4 was tested, and the “phospho-MET ELISA EMAX, MLP29 cells” value was 66.8 % HGF activity.

Target: T1, native human MET on living cells
Assay: cell-based or functional assay
Remark: another data set of the same source

B1 and B2 cannot be ordered by “protection from staurosporine-induced apoptosis EC50, MCF10A cells” value: > 32 nM for the first, > 32 nM for the second.

First: B3
Second: B4
The “protection from staurosporine-induced apoptosis EC50, MCF10A cells” value of the first is lower: 25.4 nM for the first, > 32 nM for the second.

First: B1
Second: B2
The “protection from staurosporine-induced apoptosis EMAX, MCF10A cells” value of the first is lower: 39.4% for the first, 41.7% for the second.

First: B3
Second: B4
The “protection from staurosporine-induced apoptosis EMAX, MCF10A cells” value of the first is higher: 51.9% for the first, 35.8% for the second.

Target: T2, native mouse MET on living cells
Assay: cell-based or functional assay
Remark: another data set of the same source

First: B1
Second: B5
The “protection from staurosporine-induced apoptosis EC50, MLP29 cells” value of the first is higher: > 32 nM for the first, 5.35 nM for the second.

Compared with B2, B3 is lower in “protection from staurosporine-induced apoptosis EC50, MLP29 cells” value: > 32 nM for the first, 30.1 nM for the second.

For B4, the “protection from staurosporine-induced apoptosis EC50, MLP29 cells” value was > 32 nM.

Going from B1 to B5, the “protection from staurosporine-induced apoptosis EMAX, MLP29 cells” value rises from 39.7% to 58.6%.

Compared with B2, B3 is higher in “protection from staurosporine-induced apoptosis EMAX, MLP29 cells” value: 37.5% for the first, 50.2% for the second.

In the case of B4, the “protection from staurosporine-induced apoptosis EMAX, MLP29 cells” value is reported as 43.8%.

Target: T3, human MET ECD (human, UniProt P08581 25-932)
T3 construct: range 1-932; recombinant; range as printed includes the signal peptide; also called hMET; hMET ECD
T3 sequence (P08581 25-932 limits assumed, form in doubt): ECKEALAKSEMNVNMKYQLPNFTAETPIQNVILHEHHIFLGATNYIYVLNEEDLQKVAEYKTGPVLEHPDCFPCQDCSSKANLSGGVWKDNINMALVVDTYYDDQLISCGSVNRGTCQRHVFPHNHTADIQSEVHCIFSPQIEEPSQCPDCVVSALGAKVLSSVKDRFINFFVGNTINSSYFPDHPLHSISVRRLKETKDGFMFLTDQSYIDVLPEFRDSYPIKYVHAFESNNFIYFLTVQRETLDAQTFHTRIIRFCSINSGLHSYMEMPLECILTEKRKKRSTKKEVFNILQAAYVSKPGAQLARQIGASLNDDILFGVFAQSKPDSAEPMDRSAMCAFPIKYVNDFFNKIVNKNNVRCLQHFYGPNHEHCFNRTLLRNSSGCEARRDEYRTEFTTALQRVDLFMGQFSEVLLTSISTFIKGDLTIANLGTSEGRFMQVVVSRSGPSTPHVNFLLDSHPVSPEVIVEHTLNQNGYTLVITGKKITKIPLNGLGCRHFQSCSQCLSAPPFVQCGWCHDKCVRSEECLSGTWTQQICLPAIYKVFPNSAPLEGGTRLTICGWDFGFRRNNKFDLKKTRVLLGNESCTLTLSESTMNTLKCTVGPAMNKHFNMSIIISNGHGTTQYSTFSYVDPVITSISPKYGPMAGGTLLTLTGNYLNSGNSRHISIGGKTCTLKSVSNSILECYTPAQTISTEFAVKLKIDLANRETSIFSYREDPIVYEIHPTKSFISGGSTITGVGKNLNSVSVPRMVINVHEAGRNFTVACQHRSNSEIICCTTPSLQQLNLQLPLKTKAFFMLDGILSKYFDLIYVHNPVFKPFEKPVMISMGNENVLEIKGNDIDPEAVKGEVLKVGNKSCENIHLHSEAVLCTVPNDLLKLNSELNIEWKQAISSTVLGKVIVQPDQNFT
Assay: ELISA, MET ECD coated, mAb 0-20 nM
Description: (§1) Production (by transient transfection of mammalian cells) and purification (by protein A affinity chromatography) of the resulting chimeric llama-human IgG1 molecules was outsourced to U-protein Express. Binding of chimeric mAbs to MET was determined by ELISA using hMET or mMET ECD in solid phase and increasing concentrations of antibodies (0-20 nM) in solution. […] Binding capacity (EMAX) varied from antibody to antibody, possibly due to partial epitope exposure in the immobilized antigen, but was similar in the human and mouse setting.

Going from B1 to B2, the EMAX falls from 3.08 OD450 AU to 0.994 OD450 AU.

Compared with B3, B4 is higher in EMAX: 2.62 OD450 AU for the first, 2.78 OD450 AU for the second.

Target: T4, mouse MET ECD (mouse, UniProt P16056 25-931)
T4 construct: range 1-931; recombinant; range as printed includes the signal peptide; also called mMET; mMET ECD
Assay: ELISA, MET ECD coated, mAb 0-20 nM
Description: as §1

Going from B1 to B2, the EMAX falls from 2.97 OD450 AU to 0.896 OD450 AU.

Compared with B3, B4 is higher in EMAX: 2.78 OD450 AU for the first, 2.9 OD450 AU for the second.

Target: T1, native human MET on living cells
Assay: cell-based or functional assay
Remark: another data set of the same source

First: B6
Second: B7
The “LOC br. m. (branch n.)” value of the first is lower: 20.8 branches per spheroid for the first, 29.8 branches per spheroid for the second.

Target: T2, native mouse MET on living cells
Assay: cell-based or functional assay
Remark: another data set of the same source

Compared with B6, B7 is higher in “MLP29 br. m. (branch n.)” value: 30.1 branches per spheroid for the first, 41.2 branches per spheroid for the second.
